Reference: patent US8754043B2, “Epidermal growth factor compositions” (Bharat Biotech International Limited, priority 2005, dated 2014)

Assays:
rats = assay: Pre-clinical safety studies (acute 8 days, sub-acute 30 days) in rats; format: in vivo
Experimental: (§1) Various combinations of EGF were thus carried out and the combinations were subjected to thermal stability as per ICH guidelines. Pre-clinical studies for safety of the formulations with varying percentages of EGF, were conducted in both rats and rabbits, as per the approved guidelines. Briefly, acute toxicity studies were carried out for 8 days, sub-acute studies were carried on for 30 days and ocular irritation study was conducted for 7 days.

rabbits = assay: Pre-clinical safety studies (acute 8 days, sub-acute 30 days) in rabbits; format: in vivo
Experimental: as §1

**Q.** Which results are given for `CC[C@H](C)[C@@H]1NC(=O)[C@H](Cc2ccc(O)cc2)NC(=O)CNC(=O)[C@H](C(C)C)NC(=O)[C@H](C(C)C)NC(=O)[C@@H](NC(=O)[C@H](CC(N)=O)NC(=O)[C@@H]2CSSC[C@@H]3NC(=O)[C@H](Cc4ccc(O)cc4)NC(=O)CNC(=O)[C@H](CC(=O)O)NC(=O)[C@H](Cc4c[nH]cn4)NC(=O)[C@H](CO)NC(=O)[C@H](CC(C)C)NC(=O)[C@@H]4CCCN4C(=O)[C@@H](NC(=O)[C@H](CCC(=O)O)NC(=O)[C@H](CO)NC(=O)[C@H](CC(=O)O)NC(=O)[C@H](CO)NC(=O)[C@@H](N)CC(N)=O)CSSC[C@H](NC(=O)[C@H](C(C)C)NC(=O)CNC(=O)[C@H](CC(=O)O)NC(=O)[C@H](Cc4c[nH]cn4)NC(=O)[C@H](CC(C)C)NC3=O)C(=O)N[C@@H](CCSC)C(=O)N[C@@H](Cc3ccc(O)cc3)C(=O)N[C@@H]([C@@H](C)CC)C(=O)N[C@@H](CCC(=O)O)C(=O)N[C@@H](C)C(=O)N[C@@H](CC(C)C)C(=O)N[C@@H](CC(=O)O)C(=O)N[C@@H](CCCCN)C(=O)N[C@@H](Cc3ccc(O)cc3)C(=O)N[C@@H](C)C(=O)N2)CSSC[C@@H](C(=O)N[C@@H](CCC(N)=O)C(=O)N[C@@H](Cc2ccc(O)cc2)C(=O)N[C@@H](CCCNC(=N)N)C(=O)N[C@@H](CC(=O)O)C(=O)N[C@@H](CC(C)C)C(=O)N[C@@H](CCCCN)C(=O)N[C@@H](Cc2c[nH]c3ccccc23)C(=O)N[C@@H](Cc2c[nH]c3ccccc23)C(=O)N[C@@H](CCC(=O)O)C(=O)N[C@@H](CC(C)C)C(=O)N[C@@H](CCCNC(=N)N)C(=O)O)NC(=O)[C@H](CCCNC(=N)N)NC(=O)[C@H](CCC(=O)O)NC(=O)CNC1=O` [EGF, Epidermal Growth Factor]?
**A.** biochemical parameters (rats; control vs treated): within the normal range and no abnormality was observed; growth rate and food consumption (rats; control vs treated): normal & did not differ significantly; hematological parameters (rats; control vs treated): no observable changes; anti-body response (rats; treated groups): no observable anti-body response; biochemical parameters (rabbits; control vs treated): within the normal range and no abnormality was observed; growth rate and food consumption (rabbits; control vs treated): normal & did not differ significantly; hematological parameters (rabbits; control vs treated): no observable changes; anti-body response (rabbits; treated groups): no observable anti-body response
